B1: mouse decorin core protein, wild type (residues 45-354) [modified: N-linked glycans (four consensus sites for N-linked glycosylation); N-linked glycans (four consensus sites for N-linked glycosylation)] [mouse] / rat tail type I collagen … (parent complex)
chain 1: APLALISMCPYRCQCHLRVVQCSDLGLDKVPWDFPPDTTLLDLQNNKITEIKEGAFKNLKDLHTLILVNNKISKISPEAFKPLVKLERLYLSKNQLKELPEKMPRTLQELRVHENEITKLRKSDFNGLNNVLVIELGGNPLKNSGIENGAFQGLKSLSYIRISDTNITAIPQGLPTSLTEVHLDGNKITKVDAPSLKGLINLSKLGLSFNSITVMENGSLANVPHLRELHLDNNKLLRVPAGLAQHKYIQVVYLHNNNISAVGQNDFCRAGHPSRKASYSAVSLYGNPVRYWEIFPNTFRCVYVRSAIQLGNYKAAA
chain 2: not shown
chain 3: not shown

Variants of: B1
Experiment: solid-phase binding assay (immobilized collagen, antibody-linked color reaction); decorin 2.5 µM (highest concentration); WT without collagen background est. 0.05; parent: 0.4; read off a plot

In order of rising response:
1. chain 1 R111E  ~0.18 OD 492
2. chain 1 Y11A, chain 1 R12A, chain 1 Q14A  ~0.28 OD 492
